We go through eight molecules from patent US20160272683A1 (Novo Nordisk, published 2016).

Numbered stars: 1 amine (or outer) side, 2 acyl side, 3 side chain; on linkers, the order of the positions; unused ones are H or OH. * marks the point of attachment. C20 diacid = O=C(O)CCCCCCCCCCCCCCCCCCC(=O)*; γGlu = O=C(O)[C@H](CCC(=O)[*:2])N[*:1]

T1: human calcitonin receptor (human, UniProt P30988 25-474)
T1 construct: whole, on cells; also called hCT-R; hCTR
T1 sequence (looked up): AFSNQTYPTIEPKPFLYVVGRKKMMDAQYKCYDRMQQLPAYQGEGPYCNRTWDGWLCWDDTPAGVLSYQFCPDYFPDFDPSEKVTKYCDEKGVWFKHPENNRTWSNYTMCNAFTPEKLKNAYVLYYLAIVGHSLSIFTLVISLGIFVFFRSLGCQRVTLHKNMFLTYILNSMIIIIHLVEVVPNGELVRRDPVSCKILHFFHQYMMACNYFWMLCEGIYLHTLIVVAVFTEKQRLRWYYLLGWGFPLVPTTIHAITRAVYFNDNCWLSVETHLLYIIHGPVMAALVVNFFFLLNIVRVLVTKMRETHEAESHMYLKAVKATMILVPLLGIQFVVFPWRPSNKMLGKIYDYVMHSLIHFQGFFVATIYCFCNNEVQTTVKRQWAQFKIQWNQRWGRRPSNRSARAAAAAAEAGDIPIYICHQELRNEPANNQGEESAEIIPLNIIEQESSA

B1: [N-terminal(C20 diacid-gGlu), des1, 25H, 30S, 31G]mimylin (peptide)
peptide: {C20 diacid-γGlu}-ASELSTAALGRLSAELHELATLPHTETGSGSP-NH2
SMILES: CC(C)C[C@H](NC(=O)[C@H](C)NC(=O)[C@H](C)NC(=O)[C@@H](NC(=O)[C@H](CO)NC(=O)[C@H](CC(C)C)NC(=O)[C@H](CCC(=O)O)NC(=O)[C@H](CO)NC(=O)[C@H](C)NC(=O)CC[C@H](NC(=O)CCCCCCCCCCCCCCCCCCC(=O)O)C(=O)O)[C@@H](C)O)C(=O)NCC(=O)N[C@@H](CCCNC(=N)N)C(=O)N[C@@H](CC(C)C)C(=O)N[C@@H](CO)C(=O)N[C@@H](C)C(=O)N[C@@H](CCC(=O)O)C(=O)N[C@@H](CC(C)C)C(=O)N[C@@H](Cc1c[nH]cn1)C(=O)N[C@@H](CCC(=O)O)C(=O)N[C@@H](CC(C)C)C(=O)N[C@@H](C)C(=O)N[C@H](C(=O)N[C@@H](CC(C)C)C(=O)N1CCC[C@H]1C(=O)N[C@@H](Cc1c[nH]cn1)C(=O)N[C@H](C(=O)N[C@@H](CCC(=O)O)C(=O)N[C@H](C(=O)NCC(=O)N[C@@H](CO)C(=O)NCC(=O)N[C@@H](CO)C(=O)N1CCC[C@H]1C(N)=O)[C@@H](C)O)[C@@H](C)O)[C@@H](C)O
notes: also called Ex. #73
B2: [N-terminal(C20 diacid-gGlu), des1, 30T, 31G, 32T]mimylin (peptide)
peptide: {C20 diacid-γGlu}-ASELSTAALGRLSAELHELATLPRTETGTGTP-NH2
SMILES: CC(C)C[C@H](NC(=O)[C@H](C)NC(=O)[C@H](C)NC(=O)[C@@H](NC(=O)[C@H](CO)NC(=O)[C@H](CC(C)C)NC(=O)[C@H](CCC(=O)O)NC(=O)[C@H](CO)NC(=O)[C@H](C)NC(=O)CC[C@H](NC(=O)CCCCCCCCCCCCCCCCCCC(=O)O)C(=O)O)[C@@H](C)O)C(=O)NCC(=O)N[C@@H](CCCNC(=N)N)C(=O)N[C@@H](CC(C)C)C(=O)N[C@@H](CO)C(=O)N[C@@H](C)C(=O)N[C@@H](CCC(=O)O)C(=O)N[C@@H](CC(C)C)C(=O)N[C@@H](Cc1c[nH]cn1)C(=O)N[C@@H](CCC(=O)O)C(=O)N[C@@H](CC(C)C)C(=O)N[C@@H](C)C(=O)N[C@H](C(=O)N[C@@H](CC(C)C)C(=O)N1CCC[C@H]1C(=O)N[C@@H](CCCNC(=N)N)C(=O)N[C@H](C(=O)N[C@@H](CCC(=O)O)C(=O)N[C@H](C(=O)NCC(=O)N[C@H](C(=O)NCC(=O)N[C@H](C(=O)N1CCC[C@H]1C(N)=O)[C@@H](C)O)[C@@H](C)O)[C@@H](C)O)[C@@H](C)O)[C@@H](C)O
notes: also called Ex. #74
B3: [N-terminal(C20 diacid-gGlu), des1, 30S, 31G, 33F]mimylin (peptide)
peptide: {C20 diacid-γGlu}-ASELSTAALGRLSAELHELATLPRTETGSGSF-NH2
SMILES: CC(C)C[C@H](NC(=O)[C@H](C)NC(=O)[C@H](C)NC(=O)[C@@H](NC(=O)[C@H](CO)NC(=O)[C@H](CC(C)C)NC(=O)[C@H](CCC(=O)O)NC(=O)[C@H](CO)NC(=O)[C@H](C)NC(=O)CC[C@H](NC(=O)CCCCCCCCCCCCCCCCCCC(=O)O)C(=O)O)[C@@H](C)O)C(=O)NCC(=O)N[C@@H](CCCNC(=N)N)C(=O)N[C@@H](CC(C)C)C(=O)N[C@@H](CO)C(=O)N[C@@H](C)C(=O)N[C@@H](CCC(=O)O)C(=O)N[C@@H](CC(C)C)C(=O)N[C@@H](Cc1c[nH]cn1)C(=O)N[C@@H](CCC(=O)O)C(=O)N[C@@H](CC(C)C)C(=O)N[C@@H](C)C(=O)N[C@H](C(=O)N[C@@H](CC(C)C)C(=O)N1CCC[C@H]1C(=O)N[C@@H](CCCNC(=N)N)C(=O)N[C@H](C(=O)N[C@@H](CCC(=O)O)C(=O)N[C@H](C(=O)NCC(=O)N[C@@H](CO)C(=O)NCC(=O)N[C@@H](CO)C(=O)N[C@@H](Cc1ccccc1)C(N)=O)[C@@H](C)O)[C@@H](C)O)[C@@H](C)O
notes: also called Ex. #61
B4: [N-terminal(C20 diacid-gGlu), des1, 30S, 31G, 33G]mimylin (peptide)
peptide: {C20 diacid-γGlu}-ASELSTAALGRLSAELHELATLPRTETGSGSG-NH2
SMILES: CC(C)C[C@H](NC(=O)[C@H](C)NC(=O)[C@H](C)NC(=O)[C@@H](NC(=O)[C@H](CO)NC(=O)[C@H](CC(C)C)NC(=O)[C@H](CCC(=O)O)NC(=O)[C@H](CO)NC(=O)[C@H](C)NC(=O)CC[C@H](NC(=O)CCCCCCCCCCCCCCCCCCC(=O)O)C(=O)O)[C@@H](C)O)C(=O)NCC(=O)N[C@@H](CCCNC(=N)N)C(=O)N[C@@H](CC(C)C)C(=O)N[C@@H](CO)C(=O)N[C@@H](C)C(=O)N[C@@H](CCC(=O)O)C(=O)N[C@@H](CC(C)C)C(=O)N[C@@H](Cc1c[nH]cn1)C(=O)N[C@@H](CCC(=O)O)C(=O)N[C@@H](CC(C)C)C(=O)N[C@@H](C)C(=O)N[C@H](C(=O)N[C@@H](CC(C)C)C(=O)N1CCC[C@H]1C(=O)N[C@@H](CCCNC(=N)N)C(=O)N[C@H](C(=O)N[C@@H](CCC(=O)O)C(=O)N[C@H](C(=O)NCC(=O)N[C@@H](CO)C(=O)NCC(=O)N[C@@H](CO)C(=O)NCC(N)=O)[C@@H](C)O)[C@@H](C)O)[C@@H](C)O
notes: also called Ex. #64
B5: [N-terminal(C20 diacid-gGlu), des1, 30S, 31G, 33S]mimylin (peptide)
peptide: {C20 diacid-γGlu}-ASELSTAALGRLSAELHELATLPRTETGSGSS-NH2
SMILES: CC(C)C[C@H](NC(=O)[C@H](C)NC(=O)[C@H](C)NC(=O)[C@@H](NC(=O)[C@H](CO)NC(=O)[C@H](CC(C)C)NC(=O)[C@H](CCC(=O)O)NC(=O)[C@H](CO)NC(=O)[C@H](C)NC(=O)CC[C@H](NC(=O)CCCCCCCCCCCCCCCCCCC(=O)O)C(=O)O)[C@@H](C)O)C(=O)NCC(=O)N[C@@H](CCCNC(=N)N)C(=O)N[C@@H](CC(C)C)C(=O)N[C@@H](CO)C(=O)N[C@@H](C)C(=O)N[C@@H](CCC(=O)O)C(=O)N[C@@H](CC(C)C)C(=O)N[C@@H](Cc1c[nH]cn1)C(=O)N[C@@H](CCC(=O)O)C(=O)N[C@@H](CC(C)C)C(=O)N[C@@H](C)C(=O)N[C@H](C(=O)N[C@@H](CC(C)C)C(=O)N1CCC[C@H]1C(=O)N[C@@H](CCCNC(=N)N)C(=O)N[C@H](C(=O)N[C@@H](CCC(=O)O)C(=O)N[C@H](C(=O)NCC(=O)N[C@@H](CO)C(=O)NCC(=O)N[C@@H](CO)C(=O)N[C@@H](CO)C(N)=O)[C@@H](C)O)[C@@H](C)O)[C@@H](C)O
notes: also called Ex. #63
B6: [N-terminal(C20 diacid-gGlu), des1, 30S, 31G, 33A]mimylin (peptide)
peptide: {C20 diacid-γGlu}-ASELSTAALGRLSAELHELATLPRTETGSGSA-NH2
SMILES: CC(C)C[C@H](NC(=O)[C@H](C)NC(=O)[C@H](C)NC(=O)[C@@H](NC(=O)[C@H](CO)NC(=O)[C@H](CC(C)C)NC(=O)[C@H](CCC(=O)O)NC(=O)[C@H](CO)NC(=O)[C@H](C)NC(=O)CC[C@H](NC(=O)CCCCCCCCCCCCCCCCCCC(=O)O)C(=O)O)[C@@H](C)O)C(=O)NCC(=O)N[C@@H](CCCNC(=N)N)C(=O)N[C@@H](CC(C)C)C(=O)N[C@@H](CO)C(=O)N[C@@H](C)C(=O)N[C@@H](CCC(=O)O)C(=O)N[C@@H](CC(C)C)C(=O)N[C@@H](Cc1c[nH]cn1)C(=O)N[C@@H](CCC(=O)O)C(=O)N[C@@H](CC(C)C)C(=O)N[C@@H](C)C(=O)N[C@H](C(=O)N[C@@H](CC(C)C)C(=O)N1CCC[C@H]1C(=O)N[C@@H](CCCNC(=N)N)C(=O)N[C@H](C(=O)N[C@@H](CCC(=O)O)C(=O)N[C@H](C(=O)NCC(=O)N[C@@H](CO)C(=O)NCC(=O)N[C@@H](CO)C(=O)N[C@@H](C)C(N)=O)[C@@H](C)O)[C@@H](C)O)[C@@H](C)O
notes: also called Ex. #65
B7: [N-terminal(C20 diacid-gGlu), des1, 30S, 31G, 33L]mimylin (peptide)
peptide: {C20 diacid-γGlu}-ASELSTAALGRLSAELHELATLPRTETGSGSL-NH2
SMILES: CC(C)C[C@H](NC(=O)[C@H](CO)NC(=O)CNC(=O)[C@H](CO)NC(=O)CNC(=O)[C@@H](NC(=O)[C@H](CCC(=O)O)NC(=O)[C@@H](NC(=O)[C@H](CCCNC(=N)N)NC(=O)[C@@H]1CCCN1C(=O)[C@H](CC(C)C)NC(=O)[C@@H](NC(=O)[C@H](C)NC(=O)[C@H](CC(C)C)NC(=O)[C@H](CCC(=O)O)NC(=O)[C@H](Cc1c[nH]cn1)NC(=O)[C@H](CC(C)C)NC(=O)[C@H](CCC(=O)O)NC(=O)[C@H](C)NC(=O)[C@H](CO)NC(=O)[C@H](CC(C)C)NC(=O)[C@H](CCCNC(=N)N)NC(=O)CNC(=O)[C@H](CC(C)C)NC(=O)[C@H](C)NC(=O)[C@H](C)NC(=O)[C@@H](NC(=O)[C@H](CO)NC(=O)[C@H](CC(C)C)NC(=O)[C@H](CCC(=O)O)NC(=O)[C@H](CO)NC(=O)[C@H](C)NC(=O)CC[C@H](NC(=O)CCCCCCCCCCCCCCCCCCC(=O)O)C(=O)O)[C@@H](C)O)[C@@H](C)O)[C@@H](C)O)[C@@H](C)O)C(N)=O
notes: also called Ex. #62
B8: [N-terminal(C20 diacid-gGlu), des1, 30S, 31G, 33H]mimylin (peptide)
peptide: {C20 diacid-γGlu}-ASELSTAALGRLSAELHELATLPRTETGSGSH-NH2
SMILES: CC(C)C[C@H](NC(=O)[C@H](C)NC(=O)[C@H](C)NC(=O)[C@@H](NC(=O)[C@H](CO)NC(=O)[C@H](CC(C)C)NC(=O)[C@H](CCC(=O)O)NC(=O)[C@H](CO)NC(=O)[C@H](C)NC(=O)CC[C@H](NC(=O)CCCCCCCCCCCCCCCCCCC(=O)O)C(=O)O)[C@@H](C)O)C(=O)NCC(=O)N[C@@H](CCCNC(=N)N)C(=O)N[C@@H](CC(C)C)C(=O)N[C@@H](CO)C(=O)N[C@@H](C)C(=O)N[C@@H](CCC(=O)O)C(=O)N[C@@H](CC(C)C)C(=O)N[C@@H](Cc1c[nH]cn1)C(=O)N[C@@H](CCC(=O)O)C(=O)N[C@@H](CC(C)C)C(=O)N[C@@H](C)C(=O)N[C@H](C(=O)N[C@@H](CC(C)C)C(=O)N1CCC[C@H]1C(=O)N[C@@H](CCCNC(=N)N)C(=O)N[C@H](C(=O)N[C@@H](CCC(=O)O)C(=O)N[C@H](C(=O)NCC(=O)N[C@@H](CO)C(=O)NCC(=O)N[C@@H](CO)C(=O)N[C@@H](Cc1c[nH]cn1)C(N)=O)[C@@H](C)O)[C@@H](C)O)[C@@H](C)O
notes: also called Ex. #60

The assay has as its target T1, human calcitonin receptor. Put plainly: whole-cell competition vs 125I-human calcitonin (Assay VIIa). In short, it runs like this:
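BHK tk'ts 13 cells stably co-expressing human calcitonin receptor and a CRE-luciferase reporter, seeded overnight at 37 °C. Bound tracer counted by scintillation after cold HBSS washes and NaOH/SDS lysis; IC₅₀ from one-site competition fit taken as receptor affinity.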
On to B1, for which the half-inhibitory concentration (IC50) worked out at 0.442 nM.

As to B2, the IC50 was found to be 1.08 nM.

In the case of B3, the IC50 was determined as 1.76 nM.

In the case of B4, the IC50 stood at 3.63 nM.

Consider B5, for which the IC50 was 2.6 nM.

Regarding B6, the IC50 came out at 1.25 nM.

Turning to B7, the half-inhibitory concentration (IC50) is 2.33 nM.

Regarding B8, the concentration for half-maximal inhibition (IC50) stood at 1.53 nM.

What is called IC50 is the point on the concentration scale where inhibition reaches its midpoint.
